Laboratory results reported in the DeepSol protein solubility set.

Test: soluble on expression in E. coli; label from the status in PepcDB or PDB records
For “GHMPPWTARQDSTTGLYAPVTPAGRVLLDRLAAHLPRIRSTAAEHDRDGTFPTDTFDALRKDGLMGATVPAELGGLGVDRLYDVAVALLAVARADASTALALHMQLSRGLTLGYEWRHGDERARTLAERILRGMVAGDAVVCSGIKDHHTAVTTLRPDGAGGWLLSGRKTLVSMAPVGTHFVINARTDGTDGPPRLASPVVTRDTPGFTVLDNWDGLGMRASGTVDIVFDDCPIPADHVLMRDPVGARNDAVLAGQTVSSVSVLGVYVGVAQAAYDTAVAALERRPEPPQAAALTLVAEIDSRLYALRATAGSALTAADALSADLSGDMDERGRQMMRHFQCAKLAVNRLAPEIVSDCLSLVGGASYTAGHPLARLLRDVQAGRFMQPYAYVDAVDFLSAQALGIERDNNYMSTWAKRSGGNGKSADAAGPRRPTPTSR”, the “soluble on expression in E. coli” value was “soluble”.
For “MSLQKKAMIIYNPAAGKNKFRKLLPDAEKILTEADFEVTLVPSTPAPKSTTFIAKQAAEAGFDVVIAAGGDGTVNEVVNGLMQVDTPPKLGVLPVGTTNDYARALNFAKNPLEALRIIAKQETIRVDIGKANETEFFINNAAGGKITEITYAVKESMKSKWGRLAYLFSGLTVLPKLSPVYVEIAYNDKIFKGEILLFFVNKSNSVGGMETLCPPAELNSGMFELLILKKVSPKTLFQLFASIKKGTHLSSPHVIHARTNKVTINSEADLNVSYDGVYGGKAPYTLEVIPEALEVFADTNRISSRLRGEGHHHHHH”, the “soluble on expression in E. coli” value was “soluble”.
For “MSEWRGFNRKGNTMKIRPGRHNAPDFPHGAAVTIGNFDGVHLGHKHILQKLRLEADARGLPVVAVVFEPQPKEFFALRTGKTPPCRISPLRTKLELLEGTGCVDAAWVLRFDRNFSEISAQAFIDRLLRQTLNTRYLLVGDDFRFGAGREGCFELLAQQPDMQTERTPSVIVEDIRTSSTAVRQALSDGNLAYAKKLLGHDYVLGGRVVHGRKLGRTLNAPTANIRLPGHRYALGGVFVVEADGAFGTRRGVASFGFNPTVDGGCSQKLEVHLFDFQGDLYGQRLNVRFLHKLRDEEKFDGMEELKRRIEADMEAAKCW”, the “soluble on expression in E. coli” value was “not soluble”.
With “MAHQYPSWIFINEKTFITREQLNSLLKTYNIFYENQKNLHILYGETEDGKLIVEGMLDIFWGVKRPIQLKIQDEKPFSSFTSMKSSDVFSSKGMTRWGEFDDLYRISELDRTQIPMSEKRNSQEDYLPYHSNTLKPHAKDEPDSPVLYRTMSEAALVRKRMKPLMMDRKERQKNRASINGHFYNHEIENSPQDFALHIIFATGEQRRLKKTDIPLLQRLLQGPSEKNARIFLMDKDAEEISSDVAQYINFHFSLLESILQRLNEEEKREIQRIVTKFNKEKAIILKCLQNKLVIKTETTV” the “soluble on expression in E. coli” value was “not soluble”.
In the case of “MTDLELQQLVATISMHDFHRPFQHRAYFNARLRTTGGRYQLASHDIDINPKMLTDFDEATLIGVIKHELCHYHLHLTKRGYRHRDADFKRLLAQVGGSRYAPAPKQATARPYRYIYECQRCGRRYYRKRRMDTRRYTCGRCQGPIKLVLEHHHHHH”, the “soluble on expression in E. coli” value was “soluble”.
For “MSLKYIVVTGGVMSGLGKGITAASIGRLFVDMGYRVIPIKIDPYINIDAGTMNPFQHGEVYVLKDGTEVDLDLGHYERFIGEEVTGDHNITTGKIYKRVIEKERKGDYLGQTVQIIPHVTDEIKSWIRRVAKESNAEICLVEIGGTVGDIEGMPFLEAIRQMHNEEKEEDFALVHVTLVPLDAGGEQKTKPTQHSVKELRELGLHPDVIVGRCSERLKPATKKKIALFCDVPEEAVISNEDAEDIYEVPLIFKREKLDEYLMRKLNLRAKESRKEWEEMVKRMKTLYEEASIAIVGKYVDVRDAYLSIKEALKHGGIEAGCKVNIVWVDSEDLENVDDFTLDVDGILVPGGFGARGAEGKIRAIEYARENGVPFLGICFGFQLAVIEFARNVVGFSEANSTELDENTPHPVIDLLPEQKGIDEMGGTMRLGDIEVTIKPGTIAHKLYGSEKVVERHRHRYEVNPEYIEKIESKGLVFSAYSDGGRRMEIAELPDHPFFFATQFHPEFKSRPYRPSPPFVGFVRAALKYRREEEIEGHHHHHH”, the “soluble on expression in E. coli” value was “soluble”.
For “MVICLSTEISLVAATLNEIGNIATFLDKVEKELIYYNFEIIIVDDNSSDGTKEYLAERSLKDKNLHVIENPYRVGMLGSLKMGINSAKGKYCIVMDADLQHPPEAILSIIERLNHGCDIVVGSRYVNGGSAGDRNSYRALLSIGAQYLSYLFLRSARSTTDPMSGFFGFQTSMNHDFSYKNRFKLTDMGAKILLLLLAENQNCNVCDVGYVFRSRERGKSKIVSGMSFLERYMSELLDAMIVERQWKNRGCLEHHHHHH”, the “soluble on expression in E. coli” value was “not soluble”.
With “LVRSGRNITMQIIGYMTSHRKQHLEATDVAREFGYGREHFCRLFRKATGKTFKEFLTDLRLDDACRKLSGSSASIASIARECGFPDTRALQTAVQRKYGIRAQEYRERYENR” the “soluble on expression in E. coli” value was “soluble”.
In the case of “SNAMSVQLVKGVNLHVIPTEKYKTVRLLVRFNTRLNHETITKRTLLSSLMETNSLNYPNQVKLSERLAELYGASFGIGVSKKGNQHWFNISMNIVNDHYLQDSQVLAEAVDFLKEIIFAPNIQAGQFEAETFQREKENLKAYLESIVEDKQTYASLALQSVYFNQSEDQKIPSFGTVAALAEETAASLAAYYQKMLAEDQVDIFVLGDVNEAELVPLFKQLPFTPREEGKAAIFYNQPIRNVIEERTEREVLAQSKLNLAYNTDIYYGDSYYFALQVFNGIFGGFPHSKLFMNVREKEHLAYYASSSIDTFRGFMTVQTGIDGKNRNQVLRLISTELENIRLGKIRELEIEQTKAMLKNQYILALDNAGAWLEKEYLNELMPQTMLTAEEWIARINAVTIPEIQEVAKRLELQAIFFLEGETEND”, the “soluble on expression in E. coli” value was “soluble”.
With “MEGAVIKVIGLGGAGNNAVNRMIEAGLSGVEFIAANTDAQVLAKSLADHRIQLGEKLTRGLGAGANPEIGEKAALEAEDLIAEALEGADLVFITAGMGGGTGTGSAPVVADIAKRLGALTVAVVTRPFSFEGPKRMRAAEEGIKKLKERVDAMVVVQNDRLLSAVDKKMTLKDAFLIADRVLYHGVKGITDVINLPGLINVDFADVKALLEGAGQVLMGIGAGRGENRVEEAAKSAIHSPLLERSIEGAKRLLLNVVGSEELSLMEAAEVVERIREATGHEDVDILYGVTYDERAQDELRVILIAAGFAESTVVPRPARPVDFPTGHVDLTNYDIPAFIRYGDGDYPPRRGN” the “soluble on expression in E. coli” value was “soluble”.
With “MQLGISKEQAGTVIGGLAGVAIGSTMGSGNGKIAAALIAGGIGAYVGNRIGHMLDEKDQQALALRTQEVLSQQQTTASAQPVTWKSDHSGATAQIVPGKEYTKTKQVEVKRAPKIQAVPSMKLINEPYVTISDNLNVRAAPNQAGEKVGSLKNHTEFTAVGSTGDWILVGRKGVTVGYVHKNYVEPKAQAVAKRVTPAVNLDELDVAASKETQGFDLDSVQSLPTQTVAAEAACRPVTVSLKSLEHHHHHH” the “soluble on expression in E. coli” value was “soluble”.
With “MEQSVANLVDMRDVSFTRGNRCIFDNISLTVPRGKITAIMGPSGIGKTTLLRLIGGQIAPDHGEILFDGENIPAMSRSRLYTVRKRMSMLFQSGALFTDMNVFDNVAYPLREHTQLPAPLLHSTVMMKLEAVGLRGAAKLMPSELSGGMARRAALARAIALEPDLIMFDEPFVGQDPITMGVLVKLISELNSALGVTCVVVSHDVPEVLSIADHAWILADKKIVAHGSAQALQANPDPRVRQFLDGIADGPVPFRYPAGDYHADLLPGS” the “soluble on expression in E. coli” value was “not soluble”.
In the case of “SSAMGAGPDHLFNLRNNFYLGAYQTAINNSEIANLSPENAVERDCLVFRSYIALGSYQLVISEIDESAATPLQAVKLLAMYLSTPQNKESTISSLKEWLADSTIGNNDTLRLIAGIIFMHEEDYNETLKHTHAGGTMDLYALNVQIFIKMHRAEYAEKQLRVMQQIDEDHTLTQLASAWLNLAVGGSKIQEAYLIFEDFSEKYPMTCLILNGKAVCCMQMGNFDEAETLLLEALNKDAKDPETLANLVVCSLHVGKSSSRHLSQLKLSHPEHILVKRVSSAEDNFERAVQLVA”, the “soluble on expression in E. coli” value was “soluble”.
In the case of “MAHHHHHHMTDTTKGALKRSNTLFLSDAEQFVFDFGGSAGGRAVSPGSSHGSGGQPGEGDGEKGIEETDLANGRTGVVTPFSERERTAPVAPLDAEEVQRYFDKALKGGRRILLENVPLDEAIEKFQLGLRRYEEWLCNQANSRNRGDSSKSRGDPLNEGYRGKPGDVARDAKDRKRPRL”, the “soluble on expression in E. coli” value was “not soluble”.
In the case of “MSLSRIRKAPAGILGFPVAPFNTQGTLEEEALFQNIEFLLNEGLEAIFIACGSGEFQSLSQKEYEQMVEVAVSAAGGKVPVYTGVGGNLSTALDWAQLSEKKGADGYLILPPYLVHGEQEGLYQYAKTIIESTDLNAILYQRDNAVLSVEQIKRLTECEQLVGVKDGVGNMDLNINLVYTIGDRLGWLNGMPMAEVTMPAYLPIGFHSYSSAISNYIPHISRMFYDALKNGNDELVKELYRHVILPINDIRKQRKGYAVSLIKAGMEIMGLNVRNTARPPVGPVEKDHYQQLEAILKQPADRFPKKEGHHHHHH”, the “soluble on expression in E. coli” value was “soluble”.
In the case of “MIITIPIKNQKDIGTPSDSVVVLGYFDGIHKGHQELFRVANKAARKDLLPIVVMTFNESPKIALEPYHPDLFLHILNPAERERKLKREGVEELYLLDFSSQFASLTAQEFFATYIKAMNAKIIVAGFDYTFGSDKKTAEDLKNYFDGEVIIVPPVEDEKGKISSTRIRQAILDGNVKEAGKLLGAP”, the “soluble on expression in E. coli” value was “not soluble”.
For “MSIHSASPIIRRKSRKIWVGNVPVGGDAPIAVQSMTNTETCDVAATVAQIRRLEDAGADIVRVSVPDMDAAEAFGKIKQQVNVPLVADIHFDYRIALRVAELGVDCLRINPGNIGREDRVKAVVDAARERNIPIRIGVNAGSLEKDLQKKYGEPTPEALLESAMRHVDHLDKLDFQNFKVSVKASDVFMAVAAYRLLARQIEQPLHLGITEAGGLRSGTVKSAVGLGMLLAEGIGDTIRISLAADPVEEIKVGFDILKSLHLRSRGINFIACPSCSRQNFDVVKTMNELEGRLEDLLVPMDVAVIGCVVNGPGEAKEAHVGLTGGTPNLVYIDGKPSQKLTNDNLVDELERLIRQKAAEKAEADASLIARG”, the “soluble on expression in E. coli” value was “not soluble”.
For “MSKDIRTVRPPVQLLPKAIIAVRPASTAKADLEVMAAQVAQLTTACCQENIQVDSIIITFGGIKDITKRVKQLTEQKDISYLIIYSGKQIAENESEYVNFKRDMQDWYYLKVVCYR”, the “soluble on expression in E. coli” value was “not soluble”.
For “MNDDLIMRKKPEQIEMEFQDSGESALVKSTLLSSLQNSEWEIAVRKEVKKFLEKARDDVSAKEVFDAVKDMARREIPQEAKKKLYDQVLEFVTTTNKK”, the “soluble on expression in E. coli” value was “not soluble”.
For “TLPRPFFILAPMEDVTNIVFRHVVSEAARPDVFFTEFTNTESYCHPEGIHSVRGRLTFSDDEQPMVAHIWGDKPEQFREMSIGLADMGFKGIDLNMGCPVANVAKKGKGSGLILRPETAAEIIQASKAGGLPVSVKTRLGYYDIDEWRDWLKHVFEQDIANLSIHLRTRKEMSKVDAHWELIEAIKTLRDEIAPNTLLTINGDIPDRQTGLELANKYGIDGIMIGRGIFHNPFAFEKEPREHSSKELLGL”, the “soluble on expression in E. coli” value was “not soluble”.
For “MSHYDILQAPVISEKAYSAMERGVYSFWVSPKATKTEIKDAIQQAFGVRVIGISTMNVPGKRKRVGRFIGQRNDRKKAIVRLAEGQSIEALAGQA”, the “soluble on expression in E. coli” value was “soluble”.
For “MGSDKIHHHHHHMTSTVFAQSDDFTTWTKFKVNYKIDPRFSLLSNLEFRTKDDVSRMDRLGLAIGGEYRAYSFLKLEAGYETHFRNLGDSEWKFRHRYNFGATASFQYQWLKIALRERFQQTFDRGDSKARLRSRLKLAYAPEKGIVSPYFSIEIYQSLDDAPFWRADRMRYRPGVEIALAKRWALDIFYCYQYESPKGKHIAGVEIGYSF”, the “soluble on expression in E. coli” value was “not soluble”.
For “MTPKEIFESNRPGSKDVAWCPGCGNFGIRNILIEAFSELNLKPTEVVIISGIGQAAKMPHYINVNGYHTLHGRAIPIATAVKAANPSLTVIAEGGDGDMYAEGGNHLLHAIRRNPDITVLIHNNQIYGLTKGQASPTTPIGMKTPTQPWGVFEEPLNPIALAIALGASFVARTFVGYFKESVEIIKQAIKHKGLAIVDIFQPCVSFNKLNTYSWYKEHTYWMKDHDPHDRIEAFKRAIETDPLPLGIFYINEKPTFEEQVPAYKRDKRPLWMRDPKIELVKKFFESKR”, the “soluble on expression in E. coli” value was “not soluble”.
